This is an account of results in patent US20250304628A1.

Assay [1] deals with IgG. Put plainly: SPR, Biacore 4000; IgG immobilised on CM5 chip, mutant as analyte.
Assay [2] has as its target IgG. Put plainly: dynamic binding capacity at 10% breakthrough; ligand coupled to agarose medium; after 24 h of 1 M NaOH treatment (2 h cycles).
In assay [3] the target is IgG. Put plainly: dynamic binding capacity at 10% breakthrough; ligand coupled to agarose medium, IgG 1 mg/ml loaded, before alkali treatment.
For assay [4], the target named is IgG. Put plainly: dynamic binding capacity at 10% breakthrough; ligand coupled to agarose medium; after 24 h of 1 M NaOH treatment, relative to initial capacity.

As a reminder, the Kd is the concentration at which binding is half-saturated. Read a high Kd as lower affinity. As for Z(E15Y)4 (designed binder), the dissociation constant Kd in the assay with IgG [1] was determined as 2.92 nM. Besides, the Remaining IgG capacity after 24 hours (dynamic binding capacity at 10% breakthrough) with IgG [2] was found to be 48.6 mg/mL. This substance came in with an Initial IgG capability (dynamic binding capacity at 10% breakthrough) with IgG [3] of 174 mg/mL. Also, the Remaining IgG capacity after 24 hours (% of initial) with IgG [4] stood at 28%.

Consider Z(E15V)4 (designed binder), for which the dissociation constant (Kd) with IgG [1] came to 2.66 nM. This substance also gave a Remaining IgG capacity after 24 hours (dynamic binding capacity at 10% breakthrough) in the assay with IgG [2] of 33.2 mg/mL. Besides, the Initial IgG capability (dynamic binding capacity at 10% breakthrough) in the assay with IgG [3] stood at 133 mg/mL. Besides, the Remaining IgG capacity after 24 hours (% of initial) in the assay with IgG [4] amounted to 24.9%.

Turning to Z(E15I)4 (designed binder), the dissociation constant Kd with IgG [1] came out at 2.55 nM. In addition, the Remaining IgG capacity after 24 hours (dynamic binding capacity at 10% breakthrough) with IgG [2] is 33 mg/mL. In the assay with IgG [3], this substance came in with an Initial IgG capability (dynamic binding capacity at 10% breakthrough) of 187 mg/mL. The substance also showed a Remaining IgG capacity after 24 hours (% of initial) with IgG [4] of 17.7%.

The substance “Z(N6L, Q9F, E15I, N23V)4 (designed binder)” returned a Kd with IgG [1] of 3.98 nM. In the assay with IgG [2], the Remaining IgG capacity after 24 hours (dynamic binding capacity at 10% breakthrough) amounted to 68.2 mg/mL. Further, the Initial IgG capability (dynamic binding capacity at 10% breakthrough) with IgG [3] was found to be 186 mg/mL. For the same substance, the Remaining IgG capacity after 24 hours (% of initial) with IgG [4] is 36.7%.

With “Z(N3L, N6L, Q9I, E15L, N23V)4 (designed binder)”, the Kd with IgG [1] was 2.33 nM. Also, in the assay with IgG [2], the Remaining IgG capacity after 24 hours (dynamic binding capacity at 10% breakthrough) was found to be 45.3 mg/mL. Moreover, the Initial IgG capability (dynamic binding capacity at 10% breakthrough) with IgG [3] stood at 159 mg/mL. The same substance displayed a Remaining IgG capacity after 24 hours (% of initial) with IgG [4] of 28.5%.

For the substance Z(E15F)4 (designed binder), the Kd with IgG [1] amounted to 3.99 nM. The substance also registered a Remaining IgG capacity after 24 hours (dynamic binding capacity at 10% breakthrough) in the assay with IgG [2] of 35.5 mg/mL. In addition, in the assay with IgG [3], the Initial IgG capability (dynamic binding capacity at 10% breakthrough) worked out at 155 mg/mL. The substance further displayed a Remaining IgG capacity after 24 hours (% of initial) in the assay with IgG [4] of 22.8%.

Regarding “Z(N3V, N6E, Q9I, E15L)4 (designed binder)”, the equilibrium dissociation constant (Kd) with IgG [1] amounted to 2.72 nM. Further, in the assay with IgG [2], the Remaining IgG capacity after 24 hours (dynamic binding capacity at 10% breakthrough) was found to be 110 mg/mL. The Initial IgG capability (dynamic binding capacity at 10% breakthrough) with IgG [3] was 177 mg/mL. The substance also had a Remaining IgG capacity after 24 hours (% of initial) with IgG [4] of 62.2%.

The substance “Z(N3V, N6L, Q9F, E15V, N23Y)4 (designed binder)” had a Kd with IgG [1] of 2.76 nM. The substance also yielded a Remaining IgG capacity after 24 hours (dynamic binding capacity at 10% breakthrough) with IgG [2] of 67.9 mg/mL. Further, in the assay with IgG [3], the Initial IgG capability (dynamic binding capacity at 10% breakthrough) is 169 mg/mL. Besides, the Remaining IgG capacity after 24 hours (% of initial) in the assay with IgG [4] came out at 40.1%.

Z(Q9I)4 (designed binder) registered a Remaining IgG capacity after 24 hours (dynamic binding capacity at 10% breakthrough) with IgG [2] of 39.6 mg/mL. Besides, in the assay with IgG [3], the Initial IgG capability (dynamic binding capacity at 10% breakthrough) was 143 mg/mL. For the same substance, the Remaining IgG capacity after 24 hours (% of initial) in the assay with IgG [4] amounted to 27.6%.

Consider Z(E15S)4 (designed binder), for which, in the assay with IgG [1], the Kd is 1.78 nM. This substance also had a Remaining IgG capacity after 24 hours (dynamic binding capacity at 10% breakthrough) with IgG [2] of 72 mg/mL. Besides, the Initial IgG capability (dynamic binding capacity at 10% breakthrough) with IgG [3] worked out at 165 mg/mL. Moreover, the Remaining IgG capacity after 24 hours (% of initial) with IgG [4] worked out at 43.6%.

The substance “Z(N3L, N6L, Q9F, E15I, N23V)4 (designed binder)” came in with a Remaining IgG capacity after 24 hours (dynamic binding capacity at 10% breakthrough) with IgG [2] of 68.4 mg/mL. In the assay with IgG [3], the Initial IgG capability (dynamic binding capacity at 10% breakthrough) was 151 mg/mL. Further, in the assay with IgG [4], the Remaining IgG capacity after 24 hours (% of initial) stood at 45.2%.

The substance Z(Q9M)4 (designed binder) displayed a dissociation constant Kd in the assay with IgG [1] of 2.46 nM. The Remaining IgG capacity after 24 hours (dynamic binding capacity at 10% breakthrough) with IgG [2] was 42.6 mg/mL. The Initial IgG capability (dynamic binding capacity at 10% breakthrough) with IgG [3] was 136 mg/mL. Moreover, in the assay with IgG [4], the Remaining IgG capacity after 24 hours (% of initial) came to 31.5%.

The substance Z(E15W)4 (designed binder) yielded a Kd in the assay with IgG [1] of 1.54 nM. In the assay with IgG [2], this substance showed a Remaining IgG capacity after 24 hours (dynamic binding capacity at 10% breakthrough) of 38.1 mg/mL. The substance also yielded an Initial IgG capability (dynamic binding capacity at 10% breakthrough) with IgG [3] of 165 mg/mL. This substance had a Remaining IgG capacity after 24 hours (% of initial) with IgG [4] of 23.2%.

In turn, Z(Q9F)4 (designed binder) yielded a Kd in the assay with IgG [1] of 1.74 nM. For the same substance, in the assay with IgG [2], the Remaining IgG capacity after 24 hours (dynamic binding capacity at 10% breakthrough) was determined as 37.2 mg/mL. Also, in the assay with IgG [3], the Initial IgG capability (dynamic binding capacity at 10% breakthrough) stood at 182 mg/mL. This substance also had a Remaining IgG capacity after 24 hours (% of initial) in the assay with IgG [4] of 20.4%.

“Z(N3L, N6E, Q9F, E15L, N23I)4 (designed binder)”: in the assay with IgG [2], the Remaining IgG capacity after 24 hours (dynamic binding capacity at 10% breakthrough) was determined as 65 mg/mL. The Initial IgG capability (dynamic binding capacity at 10% breakthrough) with IgG [3] was determined as 148 mg/mL. Further, the Remaining IgG capacity after 24 hours (% of initial) in the assay with IgG [4] was found to be 44%.

With “Z(N3L, N6L, Q9I, E15L)4 (designed binder)”, the Kd with IgG [1] stood at 2.09 nM. Besides, in the assay with IgG [2], the Remaining IgG capacity after 24 hours (dynamic binding capacity at 10% breakthrough) stood at 70.2 mg/mL. The same substance displayed an Initial IgG capability (dynamic binding capacity at 10% breakthrough) in the assay with IgG [3] of 179 mg/mL. This substance also came in with a Remaining IgG capacity after 24 hours (% of initial) in the assay with IgG [4] of 39.2%.

Take “Z(N3L, N6E, Q9I, E15I, N23I)4 (designed binder)”: in the assay with IgG [1], the dissociation constant (Kd) came out at 2.57 nM. Besides, the Remaining IgG capacity after 24 hours (dynamic binding capacity at 10% breakthrough) with IgG [2] was 57.2 mg/mL. The same substance yielded an Initial IgG capability (dynamic binding capacity at 10% breakthrough) in the assay with IgG [3] of 161 mg/mL. For the same substance, the Remaining IgG capacity after 24 hours (% of initial) in the assay with IgG [4] is 35.4%.

Z(E15D)4 (designed binder): the Kd in the assay with IgG [1] was found to be 1.13 nM. In the assay with IgG [2], this substance showed a Remaining IgG capacity after 24 hours (dynamic binding capacity at 10% breakthrough) of 21.6 mg/mL. In the assay with IgG [3], this substance registered an Initial IgG capability (dynamic binding capacity at 10% breakthrough) of 145 mg/mL. In the assay with IgG [4], this substance registered a Remaining IgG capacity after 24 hours (% of initial) of 14.9%.

On to Z(E15L)4 (designed binder), for which the Kd with IgG [1] came to 1.25 nM. This substance also yielded a Remaining IgG capacity after 24 hours (dynamic binding capacity at 10% breakthrough) with IgG [2] of 63 mg/mL. Also, the Initial IgG capability (dynamic binding capacity at 10% breakthrough) with IgG [3] came out at 157 mg/mL. In the assay with IgG [4], this substance had a Remaining IgG capacity after 24 hours (% of initial) of 40.1%.

The substance “Z(N3V, N6L, Q9I, E15V, N23Y)6 (designed binder)” registered a Remaining IgG capacity after 24 hours (dynamic binding capacity at 10% breakthrough) with IgG [2] of 103 mg/mL. In the assay with IgG [3], this substance came in with an Initial IgG capability (dynamic binding capacity at 10% breakthrough) of 190 mg/mL. This substance came in with a Remaining IgG capacity after 24 hours (% of initial) in the assay with IgG [4] of 54.2%.

Turning to Z(E15T)4 (designed binder), in the assay with IgG [1], the dissociation constant Kd turned out to be 4.71 nM. In the assay with IgG [2], this substance displayed a Remaining IgG capacity after 24 hours (dynamic binding capacity at 10% breakthrough) of 45.5 mg/mL. This substance returned an Initial IgG capability (dynamic binding capacity at 10% breakthrough) with IgG [3] of 176 mg/mL. The substance also showed a Remaining IgG capacity after 24 hours (% of initial) with IgG [4] of 25.9%.

In turn, “Z(N3L, Q9I, E15L, N23V)4 (designed binder)” yielded an equilibrium dissociation constant (Kd) in the assay with IgG [1] of 4.41 nM. This substance also gave a Remaining IgG capacity after 24 hours (dynamic binding capacity at 10% breakthrough) with IgG [2] of 42.1 mg/mL. Also, the Initial IgG capability (dynamic binding capacity at 10% breakthrough) with IgG [3] was found to be 166 mg/mL. The same substance returned a Remaining IgG capacity after 24 hours (% of initial) with IgG [4] of 25.4%.

On to “Z(N3L, N6E, Q9I, E15I, N23I)6 (designed binder)”, for which, in the assay with IgG [2], the Remaining IgG capacity after 24 hours (dynamic binding capacity at 10% breakthrough) is 87.8 mg/mL. Also, the Initial IgG capability (dynamic binding capacity at 10% breakthrough) with IgG [3] is 149 mg/mL. In the assay with IgG [4], this substance registered a Remaining IgG capacity after 24 hours (% of initial) of 58.8%.

“Z(N3L, N6L, Q9F, E15I, N23V)6 (designed binder)” displayed a Remaining IgG capacity after 24 hours (dynamic binding capacity at 10% breakthrough) in the assay with IgG [2] of 112 mg/mL. This substance also came in with an Initial IgG capability (dynamic binding capacity at 10% breakthrough) with IgG [3] of 175 mg/mL. The substance further registered a Remaining IgG capacity after 24 hours (% of initial) with IgG [4] of 63.9%.
